Reference: US20250304643A1 (BAINAN BIOTECH, published 2025)
*1 amine or outer side, *2 acyl side, *3 side chain or, on linkers, in order; H or OH if unused. Where no end group is shown, it is not given here. Side-chain parts run from the residue outwards. [ ]: non-standard residue; d: D form. The star is where a group is joined. C16 diacid = O=C(O)CCCCCCCCCCCCCCC(=O)*; γGlu = O=C(O)[C@H](CCC(=O)[*:2])N[*:1]; Palmitoyl = CCCCCCCCCCCCCCCC(=O)*; Decanoyl = CCCCCCCCCC(=O)*; Aib = CC(C)(N)C(=O)O

T1: human glucagon-like peptide-2 receptor (human, UniProt O95838 1-553)
T1 sequence (looked up): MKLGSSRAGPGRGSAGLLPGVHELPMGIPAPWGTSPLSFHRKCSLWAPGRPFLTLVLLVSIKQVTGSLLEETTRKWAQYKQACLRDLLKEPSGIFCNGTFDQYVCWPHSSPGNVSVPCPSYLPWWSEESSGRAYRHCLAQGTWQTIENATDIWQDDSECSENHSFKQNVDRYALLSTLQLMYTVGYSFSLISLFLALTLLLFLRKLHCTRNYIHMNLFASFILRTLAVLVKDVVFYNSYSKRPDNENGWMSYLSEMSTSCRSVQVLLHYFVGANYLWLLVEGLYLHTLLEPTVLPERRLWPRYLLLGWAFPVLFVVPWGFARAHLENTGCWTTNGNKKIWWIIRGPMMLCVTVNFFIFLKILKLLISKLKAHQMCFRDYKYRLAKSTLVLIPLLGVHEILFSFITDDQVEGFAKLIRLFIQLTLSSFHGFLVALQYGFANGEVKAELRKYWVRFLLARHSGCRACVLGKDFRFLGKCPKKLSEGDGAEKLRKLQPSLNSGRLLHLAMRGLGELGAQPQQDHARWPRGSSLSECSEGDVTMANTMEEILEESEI

T2: human glucose-dependent insulinotropic polypeptide receptor (human, UniProt P48546 22-466)
T2 sequence (looked up): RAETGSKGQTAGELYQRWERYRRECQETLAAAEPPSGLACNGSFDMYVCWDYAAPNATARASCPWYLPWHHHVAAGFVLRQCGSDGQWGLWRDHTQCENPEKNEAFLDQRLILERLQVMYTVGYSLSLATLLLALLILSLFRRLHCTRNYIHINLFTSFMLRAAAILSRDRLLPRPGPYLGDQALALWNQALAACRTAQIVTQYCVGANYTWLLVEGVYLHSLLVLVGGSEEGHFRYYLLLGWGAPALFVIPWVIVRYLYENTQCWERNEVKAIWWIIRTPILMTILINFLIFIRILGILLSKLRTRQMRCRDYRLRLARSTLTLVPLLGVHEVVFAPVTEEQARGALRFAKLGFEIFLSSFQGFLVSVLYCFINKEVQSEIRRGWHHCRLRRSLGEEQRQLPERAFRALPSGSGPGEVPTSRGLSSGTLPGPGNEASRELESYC

B1: Compound no. 29 (peptide)
peptide: H[Aib]DGTFISDYK([γGlu-Palmitoyl])T[Aib]LDNLAARDFINWLIQTKITK-OH
modifications: N-terminus assumed
SMILES: CCCCCCCCCCCCCCCC(=O)N[C@@H](CCC(=O)NCCCC[C@H](NC(=O)[C@H](Cc1ccc(O)cc1)NC(=O)[C@H](CC(=O)O)NC(=O)[C@H](CO)NC(=O)[C@@H](NC(=O)[C@H](Cc1ccccc1)NC(=O)[C@@H](NC(=O)CNC(=O)[C@H](CC(=O)O)NC(=O)C(C)(C)NC(=O)[C@@H](N)Cc1c[nH]cn1)[C@@H](C)O)[C@@H](C)CC)C(=O)N[C@H](C(=O)NC(C)(C)C(=O)N[C@@H](CC(C)C)C(=O)N[C@@H](CC(=O)O)C(=O)N[C@@H](CC(N)=O)C(=O)N[C@@H](CC(C)C)C(=O)N[C@@H](C)C(=O)N[C@@H](C)C(=O)N[C@@H](CCCNC(=N)N)C(=O)N[C@@H](CC(=O)O)C(=O)N[C@@H](Cc1ccccc1)C(=O)N[C@H](C(=O)N[C@@H](CC(N)=O)C(=O)N[C@@H](Cc1c[nH]c2ccccc12)C(=O)N[C@@H](CC(C)C)C(=O)N[C@H](C(=O)N[C@@H](CCC(N)=O)C(=O)N[C@H](C(=O)N[C@@H](CCCCN)C(=O)N[C@H](C(=O)N[C@H](C(=O)N[C@@H](CCCCN)C(=O)O)[C@@H](C)O)[C@@H](C)CC)[C@@H](C)O)[C@@H](C)CC)[C@@H](C)CC)[C@@H](C)O)C(=O)O
B2: Compound no. 26 (peptide)
peptide: H[Aib]DGK([γGlu-γGlu-Decanoyl])FISDYSTILDNLAARDFINWLIQTKITK-OH
modifications: N-terminus assumed
SMILES: CCCCCCCCCC(=O)N[C@@H](CCC(=O)N[C@@H](CCC(=O)NCCCC[C@H](NC(=O)CNC(=O)[C@H](CC(=O)O)NC(=O)C(C)(C)NC(=O)[C@@H](N)Cc1c[nH]cn1)C(=O)N[C@@H](Cc1ccccc1)C(=O)N[C@H](C(=O)N[C@@H](CO)C(=O)N[C@@H](CC(=O)O)C(=O)N[C@@H](Cc1ccc(O)cc1)C(=O)N[C@@H](CO)C(=O)N[C@H](C(=O)N[C@H](C(=O)N[C@@H](CC(C)C)C(=O)N[C@@H](CC(=O)O)C(=O)N[C@@H](CC(N)=O)C(=O)N[C@@H](CC(C)C)C(=O)N[C@@H](C)C(=O)N[C@@H](C)C(=O)N[C@@H](CCCNC(=N)N)C(=O)N[C@@H](CC(=O)O)C(=O)N[C@@H](Cc1ccccc1)C(=O)N[C@H](C(=O)N[C@@H](CC(N)=O)C(=O)N[C@@H](Cc1c[nH]c2ccccc12)C(=O)N[C@@H](CC(C)C)C(=O)N[C@H](C(=O)N[C@@H](CCC(N)=O)C(=O)N[C@H](C(=O)N[C@@H](CCCCN)C(=O)N[C@H](C(=O)N[C@H](C(=O)N[C@@H](CCCCN)C(=O)O)[C@@H](C)O)[C@@H](C)CC)[C@@H](C)O)[C@@H](C)CC)[C@@H](C)CC)[C@@H](C)CC)[C@@H](C)O)[C@@H](C)CC)C(=O)O)C(=O)O
B3: Compound no. 27 (peptide)
peptide: H[Aib]EGK([γGlu-Palmitoyl])FISDYST[Aib]LDNLAARDFINWLIQTKITK-OH
modifications: N-terminus assumed
SMILES: CCCCCCCCCCCCCCCC(=O)N[C@@H](CCC(=O)NCCCC[C@H](NC(=O)CNC(=O)[C@H](CCC(=O)O)NC(=O)C(C)(C)NC(=O)[C@@H](N)Cc1c[nH]cn1)C(=O)N[C@@H](Cc1ccccc1)C(=O)N[C@H](C(=O)N[C@@H](CO)C(=O)N[C@@H](CC(=O)O)C(=O)N[C@@H](Cc1ccc(O)cc1)C(=O)N[C@@H](CO)C(=O)N[C@H](C(=O)NC(C)(C)C(=O)N[C@@H](CC(C)C)C(=O)N[C@@H](CC(=O)O)C(=O)N[C@@H](CC(N)=O)C(=O)N[C@@H](CC(C)C)C(=O)N[C@@H](C)C(=O)N[C@@H](C)C(=O)N[C@@H](CCCNC(=N)N)C(=O)N[C@@H](CC(=O)O)C(=O)N[C@@H](Cc1ccccc1)C(=O)N[C@H](C(=O)N[C@@H](CC(N)=O)C(=O)N[C@@H](Cc1c[nH]c2ccccc12)C(=O)N[C@@H](CC(C)C)C(=O)N[C@H](C(=O)N[C@@H](CCC(N)=O)C(=O)N[C@H](C(=O)N[C@@H](CCCCN)C(=O)N[C@H](C(=O)N[C@H](C(=O)N[C@@H](CCCCN)C(=O)O)[C@@H](C)O)[C@@H](C)CC)[C@@H](C)O)[C@@H](C)CC)[C@@H](C)CC)[C@@H](C)O)[C@@H](C)CC)C(=O)O
B4: Compound no. 24 (peptide)
peptide: H[Aib]DGK([γGlu-Decanoyl])FISDYST[Aib]LDNLAARDFINWLIQTKITK-OH
modifications: N-terminus assumed
SMILES: CCCCCCCCCC(=O)N[C@@H](CCC(=O)NCCCC[C@H](NC(=O)CNC(=O)[C@H](CC(=O)O)NC(=O)C(C)(C)NC(=O)[C@@H](N)Cc1c[nH]cn1)C(=O)N[C@@H](Cc1ccccc1)C(=O)N[C@H](C(=O)N[C@@H](CO)C(=O)N[C@@H](CC(=O)O)C(=O)N[C@@H](Cc1ccc(O)cc1)C(=O)N[C@@H](CO)C(=O)N[C@H](C(=O)NC(C)(C)C(=O)N[C@@H](CC(C)C)C(=O)N[C@@H](CC(=O)O)C(=O)N[C@@H](CC(N)=O)C(=O)N[C@@H](CC(C)C)C(=O)N[C@@H](C)C(=O)N[C@@H](C)C(=O)N[C@@H](CCCNC(=N)N)C(=O)N[C@@H](CC(=O)O)C(=O)N[C@@H](Cc1ccccc1)C(=O)N[C@H](C(=O)N[C@@H](CC(N)=O)C(=O)N[C@@H](Cc1c[nH]c2ccccc12)C(=O)N[C@@H](CC(C)C)C(=O)N[C@H](C(=O)N[C@@H](CCC(N)=O)C(=O)N[C@H](C(=O)N[C@@H](CCCCN)C(=O)N[C@H](C(=O)N[C@H](C(=O)N[C@@H](CCCCN)C(=O)O)[C@@H](C)O)[C@@H](C)CC)[C@@H](C)O)[C@@H](C)CC)[C@@H](C)CC)[C@@H](C)O)[C@@H](C)CC)C(=O)O
B5: Compound no. 25 (peptide)
peptide: H[Aib]DGK([γGlu-C16 diacid])FISDYST[Aib]LDNLAARDFINWLIQTKITK-OH
modifications: N-terminus assumed
SMILES: CC[C@H](C)[C@H](NC(=O)[C@H](Cc1ccccc1)NC(=O)[C@H](CCCCNC(=O)CC[C@H](NC(=O)CCCCCCCCCCCCCCC(=O)O)C(=O)O)NC(=O)CNC(=O)[C@H](CC(=O)O)NC(=O)C(C)(C)NC(=O)[C@@H](N)Cc1c[nH]cn1)C(=O)N[C@@H](CO)C(=O)N[C@@H](CC(=O)O)C(=O)N[C@@H](Cc1ccc(O)cc1)C(=O)N[C@@H](CO)C(=O)N[C@H](C(=O)NC(C)(C)C(=O)N[C@@H](CC(C)C)C(=O)N[C@@H](CC(=O)O)C(=O)N[C@@H](CC(N)=O)C(=O)N[C@@H](CC(C)C)C(=O)N[C@@H](C)C(=O)N[C@@H](C)C(=O)N[C@@H](CCCNC(=N)N)C(=O)N[C@@H](CC(=O)O)C(=O)N[C@@H](Cc1ccccc1)C(=O)N[C@H](C(=O)N[C@@H](CC(N)=O)C(=O)N[C@@H](Cc1c[nH]c2ccccc12)C(=O)N[C@@H](CC(C)C)C(=O)N[C@H](C(=O)N[C@@H](CCC(N)=O)C(=O)N[C@H](C(=O)N[C@@H](CCCCN)C(=O)N[C@H](C(=O)N[C@H](C(=O)N[C@@H](CCCCN)C(=O)O)[C@@H](C)O)[C@@H](C)CC)[C@@H](C)O)[C@@H](C)CC)[C@@H](C)CC)[C@@H](C)O
B6: Compound no. 28 (peptide)
peptide: H[Aib]DGK([γGlu-γGlu-Palmitoyl])FISDYST[Aib]LDNLAARDFINWLIQTKITK-OH
modifications: N-terminus assumed
SMILES: CCCCCCCCCCCCCCCC(=O)N[C@@H](CCC(=O)N[C@@H](CCC(=O)NCCCC[C@H](NC(=O)CNC(=O)[C@H](CC(=O)O)NC(=O)C(C)(C)NC(=O)[C@@H](N)Cc1c[nH]cn1)C(=O)N[C@@H](Cc1ccccc1)C(=O)N[C@H](C(=O)N[C@@H](CO)C(=O)N[C@@H](CC(=O)O)C(=O)N[C@@H](Cc1ccc(O)cc1)C(=O)N[C@@H](CO)C(=O)N[C@H](C(=O)NC(C)(C)C(=O)N[C@@H](CC(C)C)C(=O)N[C@@H](CC(=O)O)C(=O)N[C@@H](CC(N)=O)C(=O)N[C@@H](CC(C)C)C(=O)N[C@@H](C)C(=O)N[C@@H](C)C(=O)N[C@@H](CCCNC(=N)N)C(=O)N[C@@H](CC(=O)O)C(=O)N[C@@H](Cc1ccccc1)C(=O)N[C@H](C(=O)N[C@@H](CC(N)=O)C(=O)N[C@@H](Cc1c[nH]c2ccccc12)C(=O)N[C@@H](CC(C)C)C(=O)N[C@H](C(=O)N[C@@H](CCC(N)=O)C(=O)N[C@H](C(=O)N[C@@H](CCCCN)C(=O)N[C@H](C(=O)N[C@H](C(=O)N[C@@H](CCCCN)C(=O)O)[C@@H](C)O)[C@@H](C)CC)[C@@H](C)O)[C@@H](C)CC)[C@@H](C)CC)[C@@H](C)O)[C@@H](C)CC)C(=O)O)C(=O)O

What follows are binders tested against T1, human glucagon-like peptide-2 receptor (assay: cell-based or functional assay).

Efficacy GLP-2R [%] | logEC50 GLP-2R | Binder
124 | – | B1
91 | – | B2
108 | – | B3
90 | – | B4
88 | 9 | B5
99 | – | B6

The binders below were run against T2, human glucose-dependent insulinotropic … (assay: cell-based or functional assay).

Efficacy GIPR [%] | Binder
104 | B1
80 | B2
98 | B3
113 | B4
93 | B5
105 | B6
